Molecular target: KCNQ1 cardiac potassium channel (KvLQT1), full-length (UniProt P51787)
Assay: cell-based or functional assay

KCNE1-D85N (cardiac potassium channel minK subunit polypeptide with asparagine at amino acid 85)
increase of current after the 10th pulse of a depolarizing pulse train: 1.9 fold
time constant for activation at +40 mV (first time constant): 368 ms
time constant for activation at +40 mV (second time constant): 2150 ms
time constant of deactivation (tail currents at -50 mV after activation at +60 mV): 295 ms
voltage-dependence of activation, V1/2: 20.6 mV
